Laboratory results from patent US9340582B2, “Bioconjugates of synthetic apelin polypeptides” (NOVARTIS AG, priority 2013, dated 2016).
Bridge positions count the residues as written; N and C are the ends. Square brackets hold non-standard residues; d marks the D form. * marks the point of attachment. Propanoyl(3-maleimido) = O=C1C=CC(=O)N1CCC(=O)*; Nle = CCCC[C@H](N)C(=O)O; AEEA = NCCOCCOCC(=O)O

Legend:
[1] = target: T1, hAPJ (Homo sapiens, UniProt P35414); experiment: hAPJ Calcium Flux Assay; format: cell-based; conditions: Chem-5 APJ stable cells, FLIPR calcium flux; read-out: hAPJ Ca^2+ Flux EC50
T1 sequence (P35414 1-380): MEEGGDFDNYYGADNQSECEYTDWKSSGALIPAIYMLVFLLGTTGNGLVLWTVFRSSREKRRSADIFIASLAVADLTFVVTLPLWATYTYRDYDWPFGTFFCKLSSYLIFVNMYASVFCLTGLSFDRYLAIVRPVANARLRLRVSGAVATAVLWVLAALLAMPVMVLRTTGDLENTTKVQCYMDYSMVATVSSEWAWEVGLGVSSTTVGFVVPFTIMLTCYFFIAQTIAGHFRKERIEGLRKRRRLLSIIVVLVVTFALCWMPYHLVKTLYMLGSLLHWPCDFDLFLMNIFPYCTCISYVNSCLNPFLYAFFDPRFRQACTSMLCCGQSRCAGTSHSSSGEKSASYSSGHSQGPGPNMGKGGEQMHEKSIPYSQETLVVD
Protocol: Chem-5 APJ stable cells (Millipore #HTS068C) were plated in 384-well format with 10,000 cells/well in 25 ul growth media, then grown 24 hours in a 37° C. tissue culture incubator. One hour before the assay, 25 ul/well FLIPR Calcium 4 dye (Molecular Devices R8142) with 2.5 mM probenecid was added, and cells were incubated one hour in a 37° C. tissue culture incubator. Bioconjugates were solubilized in HBSS, HEPES & 0.1% BSA buffer, and serially-diluted 10-fold, from 50 uM to 5 pM, in triplicate. FLIPR Tetra was used to add bioconjugates to the cells with dye (1:5, for final bioconjugate concentrations ranging from 10 uM to 1 pM). FLIPR dye inside the cells emitted fluorescence after binding to calcium, while fluorescence from outside the cells was masked. […] Readings were done for 3 minutes total, beginning 10 seconds before the bioconjugate addition. Maximum-minimum values were calculated and plotted for each bioconjugate concentration, and GraphPad prism software was used to calculate EC50 values at the curve inflection points, for calcium flux stimulation by bioconjugates.

[2] = Surrogate activity-based plasma stability assay; conditions: for Surrogate activity-based Plasma stability t½: Table 2
[3] = Plasma Stability Assay (LC-MS); format: in vitro ADME; conditions: Table 3, rat plasma, 37° C.
Protocol: • Materials: • Working solution: 1 mg/mL test article is prepared in Milli-Q water • Extraction solution: Methanol:Acetonitrile:Water (1:1:1) with 0.1% Formic Acid and 400 ng/mL Glyburide. • Plasma: Male Sprague-Dawley rat plasma (with sodium heparin), purchased from Bioreclamation LLC (Liverpool, N.Y.). • Whole blood: Male Sprague Dawley whole blood (with sodium heparin), purchased from Bioreclamation LLC (Liverpool, N.Y.) • Lung homogenate: Male rat Sprague Dawley lung was purchased from Bioreclamation LLC (Liverpool, N.Y.). The lung was homogenized using polytron homogenizer after addition of 5× volume of 1×PBS. The homogenate was centrifuged at 9000 rpm for 10 min at 4° C. The supernatant was centrifuged again at 3000 rpm for 30 min to make a clear supernatant. Protein concentration was determined using a commercial kit (Pierce, Thermo Scientific). Sample Preparation Procedure: (peptides)
Test article was prepared in one of the following biological matrices: heparinized rat plasma, heparinized rat whole blood or lung homogenate. The plasma and whole blood sample was prepared at 5000 ng/mL by adding 5 uL of 1 mg/mL Working solution to 995 uL of rat plasma or whole blood. […]

Substance: Albumin-MPA-NHCH2CH2CH2−OCH2CH2OCH2CH2O-CH2CH2CH2NH-C(O)CH2CH2C═O-A-R-P-R-L-S-H-K-G-P-Nle-P-F-OH (ARPRLSHKGPLPF; albumin-MPA linker conjugate; Nle residue) [Example 3]
- EC50 [1]: 52 nM
- Surrogate activity-based Plasma stability t½ [2]: 0.405 h

Substance: Albumin-MPA-O2Oc-O2Oc-O2Oc-O2Oc-Q-R-P-R-L-C*-H-F-G-P-Nle-C*-f-OH ({albumin-Propanoyl(3-maleimido)}-[AEEA][AEEA][AEEA][AEEA]QRPRLCHFGP[Nle]C[dF]-OH; disulfide 10-16; also: albumin conjugate) [Example 1]
- EC50 [1]: 47.2 nM

Substance: Albumin-MPA-O2Oc-O2Oc-O2Oc-O2Oc-Q-R-P-R-L-C*-H-F-G-P-Nle-C*-f-OH [Example 1]
- Surrogate activity-based Plasma stability t½ [2]: >16.67 h

Substance: Albumin-TPA-O2Oc-O2Oc-O2Oc-O2Oc-Q-R-P-R-L-C*-H-F-G-P-Nle-C*-f-OH [Example 2]
- EC50 [1]: 92.4 nM
- Surrogate activity-based Plasma stability t½ [2]: >16.67 h
- Surrogate Activity based Plasma stability t½ ([2]; Table 3): >16.67 h
- Plasma stability t½ [3]: ~24 h

Substance: Example 4: Fc-Apelin fusion SEQ ID NO: 98; linker GGGGSGGGGS, polypeptide QRPRLSHKGPMPF
- Surrogate activity-based Plasma stability t½ [2]: 3.53 h

Substance: Example 5: Fc-Apelin fusion SEQ ID NO: 99; linker GGGGSGGGGSGGGGS, polypeptide QRPRLSHKGPMPF
- Surrogate activity-based Plasma stability t½ [2]: 5.57 h
